Measurements reported in the supplement of paper PMC11865577.

Assays:
Experiment in all cases: pull-down binding Z-score (relative to library population); higher = stronger binding
[1] = system: TO-N3-2 (biotin conjugate); settings: RNA library: Library-2
Procedure, shortened: (§1)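 Biotin-conjugated small molecule (100 pmol) on streptavidin beads was incubated with 1 μg of heat-folded Cy5- or Cy3-end-labelled RNA library in phosphate/NaCl/KCl buffer at 25 °C for 60 min. Following three washes, RNA was eluted with hot SDS and hybridised at 55.5 °C for 20 h to a DNA barcode microarray. The binding value is a Z-score computed from the library mean and standard deviation, after subtraction of beads without compound and averaging of barcoded replicate probes with the highest and lowest excluded.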

[2] = system: G-clamp-N3 (biotin conjugate); settings: RNA library: Library-1 (pre-miRNA loops + repeats)
Procedure, shortened: as §1

[3] = system: TO-N3 (biotin conjugate); settings: RNA library: Library-2
Procedure, shortened: as §1

[4] = system: TO-3-N3-2 (biotin conjugate); settings: RNA library: Library-2
Procedure, shortened: as §1

[5] = system: TO-3-N3 (biotin conjugate); settings: RNA library: Library-2
Procedure, shortened: as §1

Sequence | pull-down binding Z-score [1] | pull-down binding Z-score [2] | pull-down binding Z-score [3] | pull-down binding Z-score [4] | pull-down binding Z-score [5]
AGCAGUACCAGAUGGUUCUGUGG [hsa-mir-3198-2] | -0.167 | -1.54 | -0.0604 | -0.262 | -0.0816
AGCAUCUGAAUGGGUACAGUUGUUGU [hsa-mir-6818] | -0.225 | -0.405 | 0.0834 | -0.0469 | 0.0263
AGCAUGCACUUAAUGUGGGUGUAUGU [hsa-mir-668] | -0.105 | 0.305 | 0.184 | -0.205 | 0.334
AGCCAAAAUCACCAGGGA [hsa-mir-4534] | 0.563 | 0.0802 | 0.259 | 0.118 | -0.0499
AGCCACUGCGGUCGACCAUGACCUGGA [hsa-mir-619] | 0.721 | -0.783 | 0.578 | 0.0618 | 0.401
AGCCCUGGGCUCCUCAGCAAACCUACUGGAU [hsa-mir-3174] | 0.975 | -1.41 | 0.857 | 0.3 | 0.494
AGCCCUGUUGUUGUAAGAUAGUGU [hsa-mir-550a-1] | 0.346 | -0.249 | -0.00359 | -0.124 | -0.325
AGCCCUGUUGUUGUCAGAUAGUGU [hsa-mir-550a-2] | 0.179 | -0.331 | 0.216 | 0.21 | 0.198
AGCCUCCAAACCUGUAGACAGGGUCAUGCAGUACUAGGGGCGAG [hsa-mir-4478] | 0.966 | -0.233 | 0.546 | 0.175 | -0.0187
AGCCUUCUAUUAUGCCCAGACAGGGCCACCAGAGGGCU [hsa-mir-4448] | -0.254 | -0.731 | -0.746 | -0.619 | -0.471
AGCGCGAAAGU [hsa-mir-1539] | 0.55 | 0.0302 | 0.054 | 0.0743 | -0.0926
AGCGCGGCGACCGUAACUCCU [hsa-mir-1237] | 1.65 | -0.629 | 0.724 | 0.313 | 0.152
AGCUGGCUGAAGGGCAGAAGGGAACUGUCCUUCAGCCAGAG [hsa-mir-4487] | -0.122 | -0.139 | -0.243 | -0.156 | -0.276
AGCUGGGGCCGGGU [hsa-mir-4281] | 1.27 | 0.118 | 1.63 | 0.821 | 1.37
AGCUGGGUGGAGGCAGAGCU [hsa-mir-4291] | 1.4 | 1.95 | 2.34 | 1.23 | 2.46
AGCUGUGAAAGUCCUAGCU [hsa-mir-1256] | 3.94 | 0.661 | 2.17 | 0.221 | 0.994
AGCUGUGUUUUCUGACUCAGUCAUAAU [hsa-mir-365b] | -0.505 | -0.674 | -0.26 | -0.263 | -0.26
AGCUGUUGAACUGGGAACCUGCU [hsa-mir-31] | 0.794 | 0.781 | 0.368 | -0.00735 | -0.162
AGCUGUUGGCCAUGGCGACAACACCU [hsa-mir-6742] | 0.561 | 0.213 | -0.246 | -0.322 | -0.508
